Experimental data published in paper doi:10.1101/823146 (bioRxiv, 2019).
Each block holds one molecule with its values, some of them ahead of it.

Assays:
[1] = biological target: 6xHis-tagged RcsF (E. coli) (UniProt P69411); test: BLI
[2] = biological target: Untagged BamA (biolayer interferometry) (E. coli), P0A940; test: BLI; details: remark: other sources report otherwise
BamACDE complex = BamACDE complex (E. coli, UniProt P0A940;P0A903;P0AC02;P0A937); test: native gel or EMSA
[3] = biological target: BamABCDE holocomplex (BAM) (E. coli, UniProt P0A940;P77774;P0A903;P0AC02;P0A937); test: native gel or EMSA
Sequence of BamABCDE holocomplex (BAM) (P77774 20-392, chain 2 of 4): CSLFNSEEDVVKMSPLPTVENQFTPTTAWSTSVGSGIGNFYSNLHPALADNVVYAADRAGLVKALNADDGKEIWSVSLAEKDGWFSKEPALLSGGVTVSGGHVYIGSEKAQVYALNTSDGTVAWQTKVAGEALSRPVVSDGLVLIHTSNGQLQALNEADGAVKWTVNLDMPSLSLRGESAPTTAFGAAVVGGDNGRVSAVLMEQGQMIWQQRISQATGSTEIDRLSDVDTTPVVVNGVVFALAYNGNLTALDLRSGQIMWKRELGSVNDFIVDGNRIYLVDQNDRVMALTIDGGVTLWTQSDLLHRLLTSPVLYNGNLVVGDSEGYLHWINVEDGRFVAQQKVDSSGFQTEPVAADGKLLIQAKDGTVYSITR
Sequence of BamABCDE holocomplex (BAM) (P0A903 25-344, chain 3 of 4): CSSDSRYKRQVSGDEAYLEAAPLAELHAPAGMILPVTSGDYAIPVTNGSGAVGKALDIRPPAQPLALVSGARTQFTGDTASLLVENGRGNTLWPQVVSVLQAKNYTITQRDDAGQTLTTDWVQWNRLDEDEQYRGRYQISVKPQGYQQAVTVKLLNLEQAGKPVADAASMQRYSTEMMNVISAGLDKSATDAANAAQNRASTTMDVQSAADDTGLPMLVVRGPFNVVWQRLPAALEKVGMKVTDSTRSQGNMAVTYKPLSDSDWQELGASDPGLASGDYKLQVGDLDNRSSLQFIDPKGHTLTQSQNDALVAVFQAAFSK
Sequence of BamABCDE holocomplex (BAM) (P0AC02 20-245, chain 4 of 4): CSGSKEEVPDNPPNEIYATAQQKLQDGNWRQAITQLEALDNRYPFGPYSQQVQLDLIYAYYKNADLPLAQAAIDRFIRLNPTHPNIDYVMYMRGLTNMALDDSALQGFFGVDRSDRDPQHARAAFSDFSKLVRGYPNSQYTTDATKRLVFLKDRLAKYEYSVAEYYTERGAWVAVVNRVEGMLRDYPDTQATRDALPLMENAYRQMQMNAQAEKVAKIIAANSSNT
Sequence of BamABCDE holocomplex (BAM) (P0A937 20-113, chain 5 of 4): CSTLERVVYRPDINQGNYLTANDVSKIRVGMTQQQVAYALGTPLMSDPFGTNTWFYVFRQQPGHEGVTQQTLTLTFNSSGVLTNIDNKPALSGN

BamABDE complex = BamABDE complex (E. coli, UniProt P0A940;P77774;P0AC02;P0A937); test: native gel or EMSA
Sequence of BamABDE complex (P77774 20-392, chain 2 of 3): as the sequence (P77774 20-392, chain 2 of 4) above
Sequence of BamABDE complex (P0AC02 20-245, chain 3 of 3): as the sequence (P0AC02 20-245, chain 4 of 4) above
Sequence of BamABDE complex (P0A937 20-113, chain 4 of 3): as the sequence (P0A937 20-113, chain 5 of 4) above

Sequence of BamACDE complex (P0A903 25-344, chain 2 of 3): as the sequence (P0A903 25-344, chain 3 of 4) above
Sequence of BamACDE complex (P0AC02 20-245, chain 3 of 3): as the sequence (P0AC02 20-245, chain 4 of 4) above
Sequence of BamACDE complex (P0A937 20-113, chain 4 of 3): as the sequence (P0A937 20-113, chain 5 of 4) above

- Kd [1]: 420 nM
Molecule: Untagged BamA (biolayer interferometry) (from UniProt P0A940 21-810) (natural protein; other documents disagree on this pair)

- Kd [2]: 350 nM
B1: 6xHis-tagged RcsF, P69411 16-134 (natural protein)
chain: CSMLSRSPVEPVQSTAPQPKAEPAKPKAPRATPVRIYTNAEELVGKPFRDLGEVSGDSCQASNQDSPPSIPTARKRMQINASKMKANAVLLHSCEVTSGTPGCYRQAVCIGSALNITAK
modifications: here or on the partner: biotin (EZ-Link NHS-PEG4-biotin) where BamA was immobilised on streptavidin tips

- binding result (BamACDE complex): binds
- binding result [3]: binds
- binding result (BamABDE complex): binds
B2: RcsF (overexpressed from pSC216) (natural protein)
chain: CSMLSRSPVEPVQSTAPQPKAEPAKPKAPRATPVRIYTNAEELVGKPFRDLGEVSGDSCQASNQDSPPSIPTARKRMQINASKMKANAVLLHSCEVTSGTPGCYRQAVCIGSALNITAK
modifications: lipid anchor (outer membrane lipoprotein)
